Source: patent US9187525B2, “Methods of treating ophthalmic diseases using NPR-B agonists” (Shire Orphan Therapies GmbH, dated 2015)
Numbered stars: 1 amine (or outer) side, 2 acyl side, 3 side chain; on linkers, the order of the positions; unused ones are H or OH. Bridge positions count the residues as written; N and C are the ends. Square brackets hold non-standard residues; d marks the D form. Primed or numbered codes have the meaning given here. Ends that are not written are not given here. * marks the point of attachment. 5118 = (1R,2S)-ethyl 2-aminocyclohexanecarboxylate, CCOC(=O)[C@@H]1CCCC[C@@H]1N*; 1860″ = (1R,2R)-2-methylcyclohexanamine, C[C@@H]1CCCC[C@H]1N*; 5164 = (S)-3-amino-1-ethylazepan-2-one, CCN1CCCC[C@H](N*)C1=O; Sni = (S)-nipecotic acid, O=C([C@H]1CCCN([*:1])C1)[*:2]; 5121 = 1-propyl-butyl-amine, CCCC(CCC)N*; Octanoyl = CCCCCCCC(=O)*; 5163 = not defined here; Che = not defined here; ala = not defined here; pro = not defined here; Occ = octanoic acid

T1: natriuretic peptide receptor-A (Homo sapiens)
T1 chain: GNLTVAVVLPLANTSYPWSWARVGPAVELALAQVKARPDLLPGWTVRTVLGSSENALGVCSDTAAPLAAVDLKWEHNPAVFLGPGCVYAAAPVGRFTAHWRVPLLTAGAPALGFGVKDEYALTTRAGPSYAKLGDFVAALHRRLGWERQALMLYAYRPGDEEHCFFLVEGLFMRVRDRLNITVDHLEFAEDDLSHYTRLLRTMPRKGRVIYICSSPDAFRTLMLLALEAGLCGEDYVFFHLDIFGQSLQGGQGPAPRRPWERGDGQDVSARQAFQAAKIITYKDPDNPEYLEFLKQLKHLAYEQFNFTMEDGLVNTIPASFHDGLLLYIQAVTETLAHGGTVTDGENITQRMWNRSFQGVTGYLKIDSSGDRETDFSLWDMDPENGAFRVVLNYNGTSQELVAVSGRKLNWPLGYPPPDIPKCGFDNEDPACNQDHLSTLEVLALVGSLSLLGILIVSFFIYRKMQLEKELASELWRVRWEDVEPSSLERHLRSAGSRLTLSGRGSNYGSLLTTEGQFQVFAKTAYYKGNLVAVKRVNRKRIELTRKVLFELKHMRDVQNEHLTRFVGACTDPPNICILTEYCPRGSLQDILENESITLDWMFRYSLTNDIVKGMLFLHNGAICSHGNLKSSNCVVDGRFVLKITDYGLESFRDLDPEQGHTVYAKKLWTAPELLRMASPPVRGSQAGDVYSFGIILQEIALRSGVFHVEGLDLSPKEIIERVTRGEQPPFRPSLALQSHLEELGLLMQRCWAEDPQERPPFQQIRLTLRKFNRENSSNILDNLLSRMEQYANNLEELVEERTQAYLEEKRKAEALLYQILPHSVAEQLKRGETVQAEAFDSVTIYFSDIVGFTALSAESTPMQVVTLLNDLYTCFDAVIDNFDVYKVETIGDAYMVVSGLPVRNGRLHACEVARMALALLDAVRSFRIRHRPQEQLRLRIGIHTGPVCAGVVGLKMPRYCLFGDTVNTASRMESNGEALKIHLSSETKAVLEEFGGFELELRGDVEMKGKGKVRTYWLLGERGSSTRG

T2: natriuretic peptide receptor-B (human)
T2 chain: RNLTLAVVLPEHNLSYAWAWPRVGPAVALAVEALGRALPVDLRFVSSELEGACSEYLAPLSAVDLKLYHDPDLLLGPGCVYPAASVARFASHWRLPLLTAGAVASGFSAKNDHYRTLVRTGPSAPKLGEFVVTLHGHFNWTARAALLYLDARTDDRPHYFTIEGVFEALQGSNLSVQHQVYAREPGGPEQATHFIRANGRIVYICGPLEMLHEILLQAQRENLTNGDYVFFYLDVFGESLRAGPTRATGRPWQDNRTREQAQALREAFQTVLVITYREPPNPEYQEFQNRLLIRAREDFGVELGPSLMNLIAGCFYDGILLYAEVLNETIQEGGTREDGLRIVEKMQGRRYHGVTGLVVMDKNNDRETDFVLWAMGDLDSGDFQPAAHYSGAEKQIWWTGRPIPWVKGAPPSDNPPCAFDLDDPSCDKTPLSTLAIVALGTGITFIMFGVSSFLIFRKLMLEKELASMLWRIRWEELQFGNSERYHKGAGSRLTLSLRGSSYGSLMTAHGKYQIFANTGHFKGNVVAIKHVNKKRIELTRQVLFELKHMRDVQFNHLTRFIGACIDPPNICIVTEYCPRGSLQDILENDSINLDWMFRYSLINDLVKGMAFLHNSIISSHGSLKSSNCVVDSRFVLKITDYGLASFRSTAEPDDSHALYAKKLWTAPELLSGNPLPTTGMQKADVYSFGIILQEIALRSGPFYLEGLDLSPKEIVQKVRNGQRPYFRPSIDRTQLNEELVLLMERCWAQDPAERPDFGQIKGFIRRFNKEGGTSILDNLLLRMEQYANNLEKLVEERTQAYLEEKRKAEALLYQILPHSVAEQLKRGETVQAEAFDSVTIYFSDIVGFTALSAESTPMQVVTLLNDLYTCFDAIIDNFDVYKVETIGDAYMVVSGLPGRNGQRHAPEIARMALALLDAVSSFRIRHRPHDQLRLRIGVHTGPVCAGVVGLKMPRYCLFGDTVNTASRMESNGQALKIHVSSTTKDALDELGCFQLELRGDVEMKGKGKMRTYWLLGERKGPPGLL


Target: T1, natriuretic peptide receptor-A
Assay: cell-based or functional assay

Binder | EC50, cyclic GMP production in NPR-A transfected 293-T cells [µM]
MCHFGGRMDRISCYR [mini-ANP] | 1.54
GLSKGCFGLKLDRIGSMSGLGC (ligand, disulfide 6-22 (inferred)) [C-type natriuretic peptide] | 1.6

Target: T2, natriuretic peptide receptor-B
Assay: cell-based or functional assay

Binder | EC50, cyclic GMP production in GTM-3 cells [µM] | Emax, cyclic GMP production in GTM-3 cells [%]
MCHFGGRMDRISCYR [mini-ANP] | > 45 | 0
SLRRSSCFGGRMDRIGAQSGLGCNSFRY (ligand, disulfide 7-23 (inferred)) [atrial natriuretic peptide] | 1.63 | 15
GLSKGCFGLKLDRIGSMSGLGC (ligand, disulfide 6-22 (inferred)) [C-type natriuretic peptide] | 0.0388 | 100

Target: T2, natriuretic peptide receptor-B
Assay: cell-based or functional assay
Remark: another data set of the same source

Binder | EC50 group, cGMP in GTM-3 cells [µM]
[Occ][Sni]FGLPLDRI-NH2 [JAL-0837] | ≤ 15
Octanoyl-[ala][ala]FGLKLDR-5164 (reading uncertain; also: printed as Occ-ala-ala-Phe-Gly-Leu-Lys-Leu-Asp-Arg-5164) [JAL-0834] | ≤ 15
Octanoyl-[pro]FGLPLDRI-NH2 (reading uncertain; also: printed as Occ-pro-Phe-Gly-Leu-Pro-Leu-Asp-Arg-Ile-NH2) [JAL-0836] | ≤ 15
Octanoyl-[ala]FGLPLDRI-NH2 (reading uncertain; also: printed as Occ-ala-Phe-Gly-Leu-Pro-Leu-Asp-Arg-Ile-NH2) [JAL-0835] | ≤ 15
Octanoyl-[ala][ala]FGLKLDR[5118] (reading uncertain; also: printed as Occ-ala-ala-Phe-Gly-Leu-Lys-Leu-Asp-Arg-5118) [JAL-0831] | ≤ 15
Octanoyl-AFGLKLDR-5121 (not fully specified (some residues); printed as Occ-ala-Phe-Gly-Leu-Lys-Leu-Asp-Arg-5121) [JAL-0841] | ≤ 15
Octanoyl-AFGLKLDR-{1860″} (not fully specified (some residues); printed as Occ-ala-Phe-Gly-Leu-Lys-Leu-Asp-Arg-1860) [JAL-0839] | ≤ 5
Octanoyl-[ala][ala]FGLKLDR[5163] (reading uncertain; also: printed as Occ-ala-ala-Phe-Gly-Leu-Lys-Leu-Asp-Arg-5163) [JAL-0833] | ≤ 15
Octanoyl-AFGLKLDR[Che] (not fully specified (some residues); printed as Occ-ala-Phe-Gly-Leu-Lys-Leu-Asp-Arg-Che; reading uncertain) [JAL-0840] | ≤ 15
